According to the supplement of paper PMC11865577:

How the values were obtained:
Assay in all cases: pull-down binding Z-score (relative to library population); higher = stronger binding
[1] = system: G-clamp-N3 (biotin conjugate); details: RNA library: Library-1 (pre-miRNA loops + repeats)
Outline: (§1)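 Binding is given as a Z-score against the library mean and standard deviation, calculated after removing the beads-only signal and averaging barcoded replicate probes without their highest and lowest values. Cy5- or Cy3-end-labelled RNA library (1 μg) was heat-folded in phosphate/NaCl/KCl buffer and incubated 60 min at 25 °C with streptavidin beads bearing 100 pmol of biotin-conjugated small molecule. After three washes, RNA eluted in hot SDS was hybridised to a DNA barcode microarray for 20 h at 55.5 °C.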

TO-N3 (biotin conjugate) = details: RNA library: Library-2
Outline: as §1

[2] = system: TO-3-N3-2 (biotin conjugate); details: RNA library: Library-2
Outline: as §1

[3] = system: TO-3-N3 (biotin conjugate); details: RNA library: Library-2
Outline: as §1

[4] = system: TO-N3-2 (biotin conjugate); details: RNA library: Library-2
Outline: as §1

Sequence	pull-down binding Z-score [1]	pull-down binding Z-score (TO-N3 (biotin conjugate))	pull-down binding Z-score [2]	pull-down binding Z-score [3]	pull-down binding Z-score [4]
UAUGUGAUUCUACUGCUCACUCAUAUA [hsa-mir-135a-1]	-0.239	0.212	-0.191	0.402	-0.519
CGACUCCGUGGCAGAGUUCA [hsa-mir-3666]	-1.1	0.805	-0.00234	0.331	0.845
CAGCCCGUGGUGGGG [hsa-mir-3619]	0.788	0.752	0.115	0.721	0.751
UCUGCUUUAUUUCAUCAAAGCAGA [hsa-mir-4773-1]	-0.484	-1.36	-0.676	-0.916	-1.41
AGUGCAGUAUGGUGAAGUCAAUCUGUAAU [hsa-mir-590]	1.31	-0.148	0.0335	-0.357	0.424
AGGGGUCAUAUCUCUUCUCAGGGAAAGCAGGAGCCCUUCAGCAGGGUCAGGGCCCCU [hsa-mir-6891]	1.5	0.761	0.263	0.705	0.317
GGUUCCCACGCCGCGGCAACC [hsa-mir-6776]	-1.36	0.217	-0.135	0.0159	0.293
AUUUUCACUUAAU [hsa-mir-302f]	0.103	-0.27	-0.267	-0.0598	-1.17
CUUGCUUUGAAACUAAAGAAGUAAG [hsa-mir-302a]	0.749	-0.193	-0.131	-0.0041	-0.319
AGUGGCCAAUUCCU [hsa-mir-4251]	-0.851	-0.607	-0.313	-0.482	-0.274
CUGUGACGUGCUCCAUCACCGGGCAG [hsa-mir-3714]	0.138	-0.0254	-0.391	-0.37	0.847
GAUUGGUUAGCCUAAGACUUGUUCUGAUCCAAUC [hsa-mir-5701-1_5701-2_5701-3]	-0.75	0.513	0.14	0.546	0.061
GCUGGGGCGCGGGCUUUCGCUUUCAGUCGAGGGCUAGCGAGCGCAGC [hsa-mir-7846]	1.79	1.12	0.105	0.914	1.12
GUCCGGGUGGGUUCCGGCA [hsa-mir-657]	-2.05	1.33	1.29	1.07	2.1
GACGGUGGGGGCCACGCUGACAGCCGC [hsa-mir-6804]	1.9	2.24	0.752	2.01	1.89
UUGUUGUUAUUACU [hsa-mir-378d-1]	-0.945	-0.378	-0.259	-0.148	-0.877
GUCAUUUCCCAUCACUAAUGGC [hsa-mir-6815]	-0.92	-0.873	-0.336	-0.674	-0.881
AUGUCUGCUGGGGAACCGGGGCU [hsa-mir-4518]	1.1	0.984	0.297	0.587	1.39
AUUGUACUGUGGUGGUUACAAU [hsa-mir-34b]	0.118	-0.984	-0.429	-0.851	-1.19

Sequence	pull-down binding Z-score [1]	pull-down binding Z-score (TO-N3 (biotin conjugate))	pull-down binding Z-score [2]	pull-down binding Z-score [3]	pull-down binding Z-score [4]
GUUGCAUGUUGUCACGGCCUCAAUGCAAU [hsa-mir-32]	-1.33	0.0815	-0.202	-0.164	0.552
UCCCCUCAGGA [hsa-mir-5703]	0.99	-0.256	-0.595	0.0295	-0.802
CUGUUCAGGACAAUGCCGUUGUACA [hsa-mir-199a-2]	0.637	0.16	-0.27	-0.355	0.838
GGAGAAGACUUUUCCUUUCCUCC [hsa-mir-4660]	-0.415	-0.139	-0.212	-0.1	-0.545
GGUUUCGGGCUGCC [hsa-mir-661]	0.142	0.249	0.067	0.148	0.74
GCAGCACUGUGCUGGGGAUGUUGC [hsa-mir-1301]	1.24	1.04	0.078	1.08	0.858
CGGAUCUCGAGGGUGCUUAUUGUUCGGUCCG [hsa-mir-615]	1.11	0.185	0.219	0.418	0.351
GUGUCCUUUCUUCUGAGAGCUGGACAC [hsa-mir-6500]	0.00177	-0.527	-0.39	-0.375	-0.336
CUUACUGUACACGUGGCUGGCAAG [hsa-mir-4428]	-0.412	0.588	0.108	-0.0149	1.09
ACCCGGGUGGUGGAGGUUGCAGUGAGCCAAGAUUGCGCCACUGCACUCCAGCCUGGGC [hsa-mir-1273a]	-0.139	1.94	0.442	1.06	1.66
UCUUGAAUUUUUGCCAGUUCAAGA [hsa-mir-5197]	0.24	-1.33	-0.517	-0.956	-1.38
GUGACGCCGCGAAGUGCAC [hsa-mir-3147]	1.18	0.406	0.172	0.25	0.997
AAUGCUGUGUUUCUGUAUGGUAUU [hsa-mir-92a-1]	-0.453	0.143	-0.22	0.212	-0.268
CCUCCCUAGGGGAUCCCAGGUAGG [hsa-mir-4688]	-0.606	0.0963	-0.168	0.295	-0.0612
UGCAUAAAUGAAGCUGAAUGA [hsa-mir-6134]	-0.213	-0.0557	0.378	-0.352	0.629
UUUUUCUUUACUUUUAAUGGCAAA [hsa-mir-548u]	0.72	-1.35	-0.338	-1.03	-1.2
CAGAGUGGGCUCACCUCUCGCCCACACUG [hsa-mir-6760]	-0.917	-0.637	-0.336	-0.556	-0.38
UGGAGGUGAUGGAUGUUUUCCUCCG [hsa-mir-671]	-0.238	-0.717	-0.398	-0.607	-0.359
UUCCGGUGAUUAUCACAGCCAUGCCUUUACCUCCAGAA [hsa-mir-4493]	-0.101	-0.594	-0.0994	-0.84	-0.00535

Sequence	pull-down binding Z-score [1]	pull-down binding Z-score (TO-N3 (biotin conjugate))	pull-down binding Z-score [2]	pull-down binding Z-score [3]	pull-down binding Z-score [4]
CGCGCGUCGAGUCAGCCGUGUG [hsa-mir-933]	1.31	0.126	-0.276	-0.126	0.532
GGCUGGGCAGGCGGAAAGAGGUCUGAACUGCCUCUGCC [hsa-mir-6791]	0.578	-0.0487	-0.0685	-0.139	0.358
GGUGGGGGCUCUGAGUGGGGAAAGUGGGGGCCUAGGGGAGGUCACAGU [hsa-mir-4259]	0.943	4.21	3.57	4.45	2.4
UUCUCCUUGGGAAAAACAGAGAA [hsa-mir-605]	-0.311	-0.65	-0.016	-0.446	-0.414
CCAUGCUGUUUAAGCCUAGCAUAG [hsa-mir-4423]	-0.374	0.208	-0.16	0.0223	0.476
CAGACAAUAUAGCUGAGUUUGUCUG [hsa-mir-215]	-0.604	-1.24	-0.547	-0.801	-1.03
UCCUGUAGUGUCUUAUAUACAAUACAGUAGGA [hsa-mir-613]	-0.0831	-0.743	-0.802	-0.741	-0.539
GGUAGGUUACGUCAUGCUGUUCUACC [hsa-mir-140]	0.599	-0.0663	-0.139	-0.251	0.193
GCAGCUAGUAAUAUGAGCCCAGUUGC [hsa-mir-153-2]	-0.831	-0.011	-0.0986	0.0352	0.128
GGGCGGAACACCCAGCCCC [hsa-mir-4417]	-1.31	-0.21	-0.246	-0.4	0.785
UGCUGUUGGAGACUCGAUUGUUGGUGACAGCGAAAGAACGAUAACAAA [hsa-mir-3655]	-1.76	0.231	-0.149	-0.405	1.04
AGAACUUUGGUUUU [hsa-mir-4434]	0.298	-1.1	-0.611	-0.711	-1.38
CGUACGCUUUAUCUGUGACGUAUG [hsa-mir-411]	0.625	-0.611	-0.338	-0.61	-0.0511
GGAGACCCUAUACAUACCUGUUUCC [hsa-mir-5581]	-2.1	-0.37	-0.187	-0.408	-0.354
AUGCCUGAGAAUAUAUGAAGGAGGCU [hsa-mir-204]	2.31	0.525	0.374	0.0552	0.965
GGAUGGGAGACCUGACCCAUCC [hsa-mir-5195]	0.74	-0.0467	-0.208	-0.0606	-0.332
AGCCUUCUAUUAUGCCCAGACAGGGCCACCAGAGGGCU [hsa-mir-4448]	-0.731	-0.746	-0.619	-0.471	-0.254
AGUUGGACACUCCAUGUGGUAGAGUGUC [hsa-mir-223]	0.453	0.563	-0.0653	0.617	0.0461
GGAGGGUGAGCUUUCUGAAAACCCCUCC [hsa-mir-188]	0.536	0.328	0.358	0.345	-0.0757
